Experimental data as given in patent publication US20230407373A1 (priority 2020, published 2023).
Read-outs that look alike come from different tables or passages of the source.

Tested on: HCoV-OC43 gRNA and sgRNA
Assay type: binding
Settings: for target (unweighted spectral count, OC43 Probe II): OC43 Probe II capture on infected cells; for background (unweighted spectral count, no-probe control): no-probe control on infected cells

B1: NOP58 (protein, UniProt Q9Y2X3 1-529, looked up)
Nucleolar protein 58: MLVLFETSVGYAIFKVLNEKKLQEVDSLWKEFETPEKANKIVKLKHFEKFQDTAEALAAFTALMEGKINKQLKKVLKKIVKEAHEPLAVADAKLGGVIKEKLNLSCIHSPVVNELMRGIRSQMDGLIPGVEPREMAAMCLGLAHSLSRYRLKFSADKVDTMIVQAISLLDDLDKELNNYIMRCREWYGWHFPELGKIISDNLTYCKCLQKVGDRKNYASAKLSELLPEEVEAEVKAAAEISMGTEVSEEDICNILHLCTQVIEISEYRTQLYEYLQNRMMAIAPNVTVMVGELVGARLIAHAGSLLNLAKHAASTVQILGAEKALFRALKSRRDTPKYGLIYHASLVGQTSPKHKGKISRMLAAKTVLAIRYDAFGEDSSSAMGVENRAKLEARLRTLEDRGIRKISGTGKALAKTEKYEHKSEVKTYDPSGDSTLPTCSKKRKIEQVDKEDEITEKKAKKAKIKVKVEEEEEEKVAEEEETSVKKKKKRGKKKHIKEEPLSEEEPCTSTAIASPEKKKKKKKKRENED
36 hpi, type n_36_v, tested against no-probe control, FDR<10%
  target (unweighted spectral count, OC43 Probe II capture): 4

B2: TUBB (protein, UniProt P07437 1-444, looked up)
Tubulin beta chain: MREIVHIQAGQCGNQIGAKFWEVISDEHGIDPTGTYHGDSDLQLDRISVYYNEATGGKYVPRAILVDLEPGTMDSVRSGPFGQIFRPDNFVFGQSGAGNNWAKGHYTEGAELVDSVLDVVRKEAESCDCLQGFQLTHSLGGGTGSGMGTLLISKIREEYPDRIMNTFSVVPSPKVSDTVVEPYNATLSVHQLVENTDETYCIDNEALYDICFRTLKLTTPTYGDLNHLVSATMSGVTTCLRFPGQLNADLRKLAVNMVPFPRLHFFMPGFAPLTSRGSQQYRALTVPELTQQVFDAKNMMAACDPRHGRYLTVAAVFRGRMSMKEVDEQMLNVQNKNSSYFVEWIPNNVKTAVCDIPPRGLKMAVTFIGNSTAIQELFKRISEQFTAMFRRKAFLHWYTGEGMDEMEFTEAESNMNDLVSEYQQYQDATAEEEEDFGEEAEEEA
OC43 Probe II, 12 hpi (type n_12_v), infected cells, tested against no-probe control
  target (unweighted spectral count): 11
Type n_36_v, 36 hpi
  target (unweighted spectral count, OC43 Probe II): 11
  background (unweighted spectral count, no-probe control): 4

B3: DHX15 (protein, UniProt O43143 1-795, looked up)
ATP-dependent RNA helicase …: MSKRHRLDLGEDYPSGKKRAGTDGKDRDRDRDREDRSKDRDRERDRGDREREREKEKEKELRASTNAMLISAGLPPLKASHSAHSTHSAHSTHSTHSAHSTHAGHAGHTSLPQCINPFTNLPHTPRYYDILKKRLQLPVWEYKDRFTDILVRHQSFVLVGETGSGKTTQIPQWCVEYMRSLPGPKRGVACTQPRRVAAMSVAQRVADEMDVMLGQEVGYSIRFEDCSSAKTILKYMTDGMLLREAMNDPLLERYGVIILDEAHERTLATDILMGVLKEVVRQRSDLKVIVMSATLDAGKFQIYFDNCPLLTIPGRTHPVEIFYTPEPERDYLEAAIRTVIQIHMCEEEEGDLLLFLTGQEEIDEACKRIKREVDDLGPEVGDIKIIPLYSTLPPQQQQRIFEPPPPKKQNGAIGRKVVVSTNIAETSLTIDGVVFVIDPGFAKQKVYNPRIRVESLLVTAISKASAQQRAGRAGRTRPGKCFRLYTEKAYKTEMQDNTYPEILRSNLGSVVLQLKKLGIDDLVHFDFMDPPAPETLMRALELLNYLAALNDDGDLTELGSMMAEFPLDPQLAKMVIASCDYNCSNEVLSITAMLSVPQCFVRPTEAKKAADEAKMRFAHIDGDHLTLLNVYHAFKQNHESVQWCYDNFINYRSLMSADNVRQQLSRIMDRFNLPRRSTDFTSRDYYINIRKALVTGYFMQVAHLERTGHYLTVKDNQVVQLHPSTVLDHKPEWVLYNEFVLTTKNYIRTCTDIKPEWLVKIAPQYYDMSNFPQCEAKRQLDRIIAKLQSKEYSQY
Type n_48_v, 48 hpi
  target (unweighted spectral count, OC43 Probe II): 13
  background (unweighted spectral count, no-probe control): 3

B4: NFXL1 (protein, UniProt Q6ZNB6 1-911, looked up)
NF-X1-type zinc finger …: MEASWRQVAGGRGRSRGRATAAPSGNGVHLRGAGGGREKGSVGAVPSGTSPGGVATTAAAGSRHSPAGSQALQTTAASELMSQKKFEEIKKANQAAARKLVEEQFSSSSEEGDEDFEGKQGKILANTFITYTTQTDGDTRELERTKQYVNEAFQAGAMTCLICIASVKRNQAVWSCSGCFCIFHMPCIQKWAKDSQFLVSSVTDDDFGKKDCPWPCPKCRFEYKRSETPSRYYCYCGKVEDPPLDPWLVPHSCGQVCEREFKPPCGHKCLLLCHPGPCPPCPKMVTTTCYCKKAKPIPRRCSAKEWSCQLPCGQKLLCGQHKCENPCHAGSCQPCPRVSRQKCVCGKKVAERSCASPLWHCDQVCGKTLPCGNHTCEQVCHVGACGECPRSGKRFCPCQKSKFSLPCTEDVPTCGDSCDKVLECGIHRCSQRCHRGPCETCRQEVEKHCRCGKHTKRMPCHKPYLCETKCVKMRDCQKHQCRRKCCPGNCPPCDQNCGRTLGCRNHKCPSVCHRGSCYPCPETVDVKCNCGNTKVTVPCGRERTTRPPKCKEQCSRPPTCHHTSQEKHRCHFGSCPPCHQPCQKVLEKCGHLCPAPCHDQALIKQTGRHQPTGPWEQPSEPAFIQTALPCPPCQVPIPMECLGKHEVSPLPCHAVGPYSCKRVCGRILDCQNHTCMKECHKVTKTDGCTGKNKAGPECLHCEEGCSKSRPLGCLHPCILRCHPGECPPCVQMLRIKCHCKITSLYVECRKITTADVNEKNLLSCCKNQCPKELPCGHRCKEMCHPGECPFNCNQKVKLRCPCKRIKKELQCNKVRENQVSIECDTTCKEMKRKASEIKEAEAKAALEEEKRRQQAELEAFENRLKGRRKKNRKRDEVAVELSLWQKHKYYLISVCGVVVVVFAWYITHDVN
Type n_48_v, 48 hpi
  target (unweighted spectral count, OC43 Probe II): 12
  background (unweighted spectral count, no-probe control): 3

B5: NOP56 (protein, UniProt O00567 1-594, looked up)
Nucleolar protein 56: MVLLHVLFEHAVGYALLALKEVEEISLLQPQVEESVLNLGKFHSIVRLVAFCPFASSQVALENANAVSEGVVHEDLRLLLETHLPSKKKKVLLGVGDPKIGAAIQEELGYNCQTGGVIAEILRGVRLHFHNLVKGLTDLSACKAQLGLGHSYSRAKVKFNVNRVDNMIIQSISLLDQLDKDINTFSMRVREWYGYHFPELVKIINDNATYCRLAQFIGNRRELNEDKLEKLEELTMDGAKAKAILDASRSSMGMDISAIDLINIESFSSRVVSLSEYRQSLHTYLRSKMSQVAPSLSALIGEAVGARLIAHAGSLTNLAKYPASTVQILGAEKALFRALKTRGNTPKYGLIFHSTFIGRAAAKNKGRISRYLANKCSIASRIDCFSEVPTSVFGEKLREQVEERLSFYETGEIPRKNLDVMKEAMVQAEEAAAEITRKLEKQEKKRLKKEKKRLAALALASSENSSSTPEECEEMSEKPKKKKKQKPQEVPQENGMEDPSISFSKPKKKKSFSKEELMSSDLEETAGSTSIPKRKKSTPKEETVNDPEEAGHRSGSKKKRKFSKEEPVSSGPEEAVGKSSSKKKKKFHKASQED
Type n_48_v, 48 hpi
  target (unweighted spectral count, OC43 Probe II): 5
  background (unweighted spectral count, no-probe control): 1

B6: VIL1 (protein, UniProt P09327 2-827, looked up)
Villin-1: TKLSAQVKGSLNITTPGLQIWRIEAMQMVPVPSSTFGSFFDGDCYIILAIHKTASSLSYDIHYWIGQDSSLDEQGAAAIYTTQMDDFLKGRAVQHREVQGNESEAFRGYFKQGLVIRKGGVASGMKHVETNSYDVQRLLHVKGKRNVVAGEVEMSWKSFNRGDVFLLDLGKLIIQWNGPESTRMERLRGMTLAKEIRDQERGGRTYVGVVDGENELASPKLMEVMNHVLGKRRELKAAVPDTVVEPALKAALKLYHVSDSEGNLVVREVATRPLTQDLLSHEDCYILDQGGLKIYVWKGKKANEQEKKGAMSHALNFIKAKQYPPSTQVEVQNDGAESAVFQQLFQKWTASNRTSGLGKTHTVGSVAKVEQVKFDATSMHVKPQVAAQQKMVDDGSGEVQVWRIENLELVPVDSKWLGHFYGGDCYLLLYTYLIGEKQHYLLYVWQGSQASQDEITASAYQAVILDQKYNGEPVQIRVPMGKEPPHLMSIFKGRMVVYQGGTSRTNNLETGPSTRLFQVQGTGANNTKAFEVPARANFLNSNDVFVLKTQSCCYLWCGKGCSGDEREMAKMVADTISRTEKQVVVEGQEPANFWMALGGKAPYANTKRLQEENLVITPRLFECSNKTGRFLATEIPDFNQDDLEEDDVFLLDVWDQVFFWIGKHANEEEKKAAATTAQEYLKTHPSGRDPETPIIVVKQGHEPPTFTGWFLAWDPFKWSNTKSYEDLKAELGNSRDWSQITAEVTSPKVDVFNANSNLSSGPLPIFPLEQLVNKPVEELPEGVDPSRKEEHLSIEDFTQAFGMTPAAFSALPRWKQQNLKKEKGLF
Type n_48_v, 48 hpi
  target (unweighted spectral count, OC43 Probe II): 5
  background (unweighted spectral count, no-probe control): 1

B7: EEF1A2 (protein, UniProt Q05639 2-463, looked up)
Elongation factor 1-alpha 2: GKEKTHINIVVIGHVDSGKSTTTGHLIYKCGGIDKRTIEKFEKEAAEMGKGSFKYAWVLDKLKAERERGITIDISLWKFETTKYYITIIDAPGHRDFIKNMITGTSQADCAVLIVAAGVGEFEAGISKNGQTREHALLAYTLGVKQLIVGVNKMDSTEPAYSEKRYDEIVKEVSAYIKKIGYNPATVPFVPISGWHGDNMLEPSPNMPWFKGWKVERKEGNASGVSLLEALDTILPPTRPTDKPLRLPLQDVYKIGGIGTVPVGRVETGILRPGMVVTFAPVNITTEVKSVEMHHEALSEALPGDNVGFNVKNVSVKDIRRGNVCGDSKSDPPQEAAQFTSQVIILNHPGQISAGYSPVIDCHTAHIACKFAELKEKIDRRSGKKLEDNPKSLKSGDAAIVEMVPGKPMCVESFSQYPPLGRFAVRDMRQTVAVGVIKNVEKKSGGAGKVTKSAQKAQKAGK
Type n_48_v, 48 hpi
  target (unweighted spectral count, OC43 Probe II): 5
  background (unweighted spectral count, no-probe control): 1

B8: GANAB (protein, UniProt Q14697 29-944, looked up)
Neutral alpha-glucosidase AB: ITLAVDRSNFKTCEESSFCKRQRSIRPGLSPYRALLDSLQLGPDSLTVHLIHEVTKVLLVLELQGLQKNMTRFRIDELEPRRPRYRVPDVLVADPPIARLSVSGRDENSVELTMAEGPYKIILTARPFRLDLLEDRSLLLSVNARGLLEFEHQRAPRVSQGSKDPAEGDGAQPEETPRDGDKPEETQGKAEKDEPGAWEETFKTHSDSKPYGPMSVGLDFSLPGMEHVYGIPEHADNLRLKVTEGGEPYRLYNLDVFQYELYNPMALYGSVPVLLAHNPHRDLGIFWLNAAETWVDISSNTAGKTLFGKMMDYLQGSGETPQTDVRWMSETGIIDVFLLLGPSISDVFRQYASLTGTQALPPLFSLGYHQSRWNYRDEADVLEVDQGFDDHNLPCDVIWLDIEHADGKRYFTWDPSRFPQPRTMLERLASKRRKLVAIVDPHIKVDSGYRVHEELRNLGLYVKTRDGSDYEGWCWPGSAGYPDFTNPTMRAWWANMFSYDNYEGSAPNLFVWNDMNEPSVFNGPEVTMLKDAQHYGGWEHRDVHNIYGLYVHMATADGLRQRSGGMERPFVLARAFFAGSQRFGAVWTGDNTAEWDHLKISIPMCLSLGLVGLSFCGADVGGFFKNPEPELLVRWYQMGAYQPFFRAHAHLDTGRREPWLLPSQHNDIIRDALGQRYSLLPFWYTLLYQAHREGIPVMRPLWVQYPQDVTTFNIDDQYLLGDALLVHPVSDSGAHGVQVYLPGQGEVWYDIQSYQKHHGPQTLYLPVTLSSIPVFQRGGTIVPRWMRVRRSSECMKDDPITLFVALSPQGTAQGELFLDDGHTFNYQTRQEFLLRRFSFSGNTLVSSSADPEGHFETPIWIERVVIIGAGKPAAVVLQTKGSPESRLSFQHDPETSVLVLRKPGINVASDWSIHLR
Type n_48_v, 48 hpi
  target (unweighted spectral count, OC43 Probe II): 5
  background (unweighted spectral count, no-probe control): 1
